System: Escherichia coli TOP10
Test: shrunken log2 fold change of peptide-encoding DNA abundance (4.5 h post-induction vs induction); higher = less antimicrobial activity (less host growth inhibition)
Settings: time post-induction: 4.5 h; library: site-saturation at positions 5, 18, 19, 20
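Also: peptides expressed intracellularly from a pBAD plasmid library in pooled LB shake-flask culture, induced with 0.3% L-arabinose, DNA abundance read by NGS, three biological replicates, DESeq2 with apeglm shrinkage.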

Sequence	shrunken log2 fold change
RRIRKRPPRLPRPRPRPKPDPRP	0.861
RRIRVRPPRLPRPRPRPAKYPRP	-0.575
RRIRSRPPRLPRPRPRPSHDPRP	-0.308
RRIRVRPPRLPRPRPRPGGMPRP	0.0665
RRIRSRPPRLPRPRPRPNSKPRP	-0.382
RRIRHRPPRLPRPRPRPWYIPRP	-0.549
RRIRQRPPRLPRPRPRPYFKPRP	-0.454
RRIRGRPPRLPRPRPRPQDLPRP	-0.00287
RRIRMRPPRLPRPRPRPPPQPRP	1.79
RRIRPRPPRLPRPRPRPSQGPRP	-0.418
RRIRVRPPRLPRPRPRPDVYPRP	-0.0411
RRIRIRPPRLPRPRPRPMYDPRP	-0.726
RRIRMRPPRLPRPRPRPLTIPRP	0.19
RRIRNRPPRLPRPRPRPCLKPRP	-0.315
RRIRCRPPRLPRPRPRPAIEPRP	-0.384
RRIRSRPPRLPRPRPRPTVEPRP	0.119
RRIRLRPPRLPRPRPRPCGQPRP	-0.0417
RRIRTRPPRLPRPRPRPSWHPRP	-0.23
RRIRARPPRLPRPRPRPDLTPRP	0.198
RRIRVRPPRLPRPRPRPKNLPRP	0.0256
RRIRQRPPRLPRPRPRPEFVPRP	0.031
RRIRYRPPRLPRPRPRPWMWPRP	0.0261
RRIRHRPPRLPRPRPRPMCEPRP	-0.293
RRIRQRPPRLPRPRPRPTPGPRP	0.417
RRIRDRPPRLPRPRPRPMLQPRP	0.0454

Sequence	shrunken log2 fold change
RRIRCRPPRLPRPRPRPVYKPRP	-0.595
RRIRHRPPRLPRPRPRPVVEPRP	-0.0145
RRIRKRPPRLPRPRPRPVLNPRP	0.0304
RRIRFRPPRLPRPRPRPPDQPRP	0.63
RRIRTRPPRLPRPRPRPVWNPRP	-0.117
RRIRRRPPRLPRPRPRPNNKPRP	-0.24
RRIRVRPPRLPRPRPRPVYFPRP	-0.334
RRIRDRPPRLPRPRPRPIINPRP	0.423
RRIRYRPPRLPRPRPRPGQNPRP	-0.01
RRIRLRPPRLPRPRPRPVFNPRP	-0.448
RRIRSRPPRLPRPRPRPQKTPRP	0.0161
RRIRHRPPRLPRPRPRPPFAPRP	0.564
RRIRNRPPRLPRPRPRPQMSPRP	-0.0396
RRIRLRPPRLPRPRPRPTRRPRP	0.298
RRIRERPPRLPRPRPRPPVDPRP	0.125
RRIRLRPPRLPRPRPRPTYIPRP	-0.304
RRIRPRPPRLPRPRPRPSIRPRP	-0.306
RRIRNRPPRLPRPRPRPHNWPRP	-0.391
RRIRWRPPRLPRPRPRPSGSPRP	0.316
RRIRMRPPRLPRPRPRPQWHPRP	0.265
RRIRARPPRLPRPRPRPNMNPRP	-0.212
RRIRRRPPRLPRPRPRPAQEPRP	0.146
RRIRTRPPRLPRPRPRPPPMPRP	0.54
RRIRMRPPRLPRPRPRPWAQPRP	0.35
RRIRLRPPRLPRPRPRPSCYPRP	-0.164

Sequence	shrunken log2 fold change
RRIRERPPRLPRPRPRPPASPRP	0.127
RRIRDRPPRLPRPRPRPHKWPRP	-0.202
RRIRHRPPRLPRPRPRPFLPPRP	-0.671
RRIRGRPPRLPRPRPRPQRWPRP	0.293
RRIRIRPPRLPRPRPRPGWQPRP	0.449
RRIRPRPPRLPRPRPRPVAKPRP	0.236
RRIRMRPPRLPRPRPRPWAGPRP	0.235
RRIRERPPRLPRPRPRPTMVPRP	0.0432
RRIRLRPPRLPRPRPRPEQGPRP	1.07
RRIRKRPPRLPRPRPRPRAQPRP	0.7
RRIRCRPPRLPRPRPRPKTKPRP	0.177
RRIRQRPPRLPRPRPRPMIVPRP	0.000655
RRIRYRPPRLPRPRPRPLCLPRP	-0.341
RRIRARPPRLPRPRPRPQHPPRP	0.29
RRIRGRPPRLPRPRPRPYWHPRP	-0.627
RRIRRRPPRLPRPRPRPHISPRP	-0.0794
RRIRFRPPRLPRPRPRPSCWPRP	0.144
RRIRVRPPRLPRPRPRPQCFPRP	0.00325
RRIRIRPPRLPRPRPRPMKYPRP	-0.104
RRIRGRPPRLPRPRPRPVGMPRP	0.907
RRIRKRPPRLPRPRPRPKAVPRP	-0.11
RRIRTRPPRLPRPRPRPCGAPRP	0.0999
RRIRIRPPRLPRPRPRPDDAPRP	-0.319
RRIRLRPPRLPRPRPRPLFEPRP	1.33
RRIRYRPPRLPRPRPRPHMMPRP	-1.6

— the supplement of paper PMC9112550, “Optimization of the antimicrobial peptide Bac7 by deep mutational scanning” (BMC Biology, 2022)
